The text below walks through data of PMC9592583.

The target in this assay is proMbxA (6H-MbxA, non-acylated precursor of the RTX toxin MbxA from Moraxella bovis) (Moraxella bovis). In words: SEC-MALS; proMbxA species of SEC peak 1, 1.3-2.5 mg/ml, 200 ul on Superose 6 Increase 10/300 GL; 50 mM TRIS pH 7.8, 100 mM NaCl, 10 mM CaCl2.

In general, stoichiometry N refers to a count of units in the complex or per binding partner. In the case of “proMbxA (6H-MbxA, non-acylated precursor of the RTX toxin MbxA from Moraxella bovis) (natural protein)”, the stoichiometry N worked out at 2.
